{
  "source": "the nanobody polyreactivity screen of Harvey et al. (2022)",
  "data": [
    {"assay": "yeast display, Sf9 membrane polyspecificity reagent, FACS + sequencing; frameworks hold sequencing errors", "how_it_was_run": "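A nanobody's polyreactivity label depends on the gate it was sorted from. Yeast display cells were stained with 10% biotinylated, detergent-solubilized Sf9 membrane reagent for 1 hour at 4 °C, enriched on streptavidin microbeads and sorted by FACS. The low and high (top ~1%) gates were set on anti-HA fluorescence for expression and streptavidin fluorescence for reagent binding.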", "values": [
      {"sequence": "QVQLVESGGGLVQAGGSLRLSCAASGRIFGGYAMGWYRQAPGKERELVAAIDLSGGSTYYADSVKGRFTISRDNAKNTVYLQMNSLKPEDNAVYYCAADAYPVYYYLSTYDPWYDYWGQGTQVTVSS", "polyreactivity (PSR sort gate)": "low polyreactivity"},
      {"sequence": "QVQLVESGGGLVQAGGSLRLSCAASGRIFGGYAMGWYRQAPGKERELVAAISGSGGRTYYADSVKGRFTISRDNAKNTVYLQMNSLKPEDTAVYYCNKGYVYGHEYWGQGTQVTVSS", "polyreactivity (PSR sort gate)": "high polyreactivity"},
      {"sequence": "QVQLVESGGGLVQAGGSLRLSCAASGRIFGGYAMGWYRQAPGKERELVAVISRGGSITDYADSVKGRFTISRDNAKNTVYLQMNSLKPEDTAVYYCAARICGGSYWGQGTQVTVSS", "polyreactivity (PSR sort gate)": "high polyreactivity"},
      {"sequence": "QVQLVESGGGLVQAGGSLRLSCAASGRIFGGYAMGWYRQAPGKEWEVVAAIRDSGRTYYADSVKGRFTISRDNAKNTVYLQMNSLKPEDTAVYYCAADAHSSYSPFRWYDYWGQGTQVTVSS", "polyreactivity (PSR sort gate)": "low polyreactivity"},
      {"sequence": "QVQLVESGGGLVQAGGSLRLSCAASGRIFGGYTMGWYRQAPGKERELVAAITGSGGRTYYADSVKGRFTISRDNAKNTVYLQMNSLKPEDTAVYYCNTVYRYRYYWGQGTQVTVSS", "polyreactivity (PSR sort gate)": "high polyreactivity"},
      {"sequence": "QVQLVESGGGLVQAGGSLRLSCAASGRIFGGYVMGWYRQAPGKEREFVAAISGRGTSTSYADSVKGRFTISRDNAKNTVYVQMNSLKPEDTAVYYCAARPKSDYSNGGNYWGQGTQVTVSS", "polyreactivity (PSR sort gate)": "high polyreactivity"},
      {"sequence": "QVQLVESGGGLVQAGGSLRLSCAASGRIFGHYAMGWYRQAPGKERELVAAIRYSAGRTYYAGSVKGRFTISRDNAKNTVYLQMNSLKPEDTAVYYCAKTSRYLTGGGDYWGQGTQVTVSS", "polyreactivity (PSR sort gate)": "high polyreactivity"},
      {"sequence": "QVQLVESGGGLVQAGGSLRLSCAASGRIFGINAMGWYRQAPGKERELVAAITWSGDGTYYADSVKGRFTISRDNAKNTVYLQMNSLKPEDTAVYYCARYDYWGHGTQVTVSS", "polyreactivity (PSR sort gate)": "low polyreactivity"},
      {"sequence": "QVQLVESGGGLVQAGGSLRLSCAASGRIFGINAMGWYRQGPGKERELVAASRSSDVSTYNADSVKGRFTISRDNAKNTVYLQMNSLKPEDTAVYYCAAAYRTQIYRNEYWGQGTQVTVSS", "polyreactivity (PSR sort gate)": "low polyreactivity"},
      {"sequence": "QVQLVESGGGLVQAGGSLRLSCAASGRIFGINVMGWYRQAPGKERELVARITGRGGRTYYADSVKGRFTISRDNAKNTVYLQMNSLKPEDTAVYYCNAQPSTTGTYDYWGQGTQVTVSS", "polyreactivity (PSR sort gate)": "high polyreactivity"},
      {"sequence": "QVQLVESGGGLVQAGGSLRLSCAASGRIFGIYAMGWYRQAPGKERELVAAISYSGGSTYYADSVKGRFTISRDNAKNTVYLQMNSLNPEDTAVYYCNADYYASYYPYYSIRLDYWGQGTQVTVSS", "polyreactivity (PSR sort gate)": "low polyreactivity"},
      {"sequence": "QVQLVESGGGLVQAGGSLRLSCAASGRIFGIYAMGWYRQAPGKERELVAAISYSGGSTYYADSVKGRFTISRDNAKNTVYLQMNSMKPEDTAVYYCNADYYASYYPYYSIRLDYWGQGTQVTVSS", "polyreactivity (PSR sort gate)": "low polyreactivity"},
      {"sequence": "QVQLVESGGGLVQAGGSLRLSCAASGRIFGIYAMGWYRQAPGKERELVATITDSDDSTYYADSVKGRFTISRDNAKNTVNLQMNSLKPEDTAVYYCATAFSYGGGAYDYWGQGTKVTVSS", "polyreactivity (PSR sort gate)": "low polyreactivity"},
      {"sequence": "QVQLVESGGGLVQAGGSLRLSCAASGRIFGKYAMGWYRQAPWKERELVATISLSGVRTYYADSVKGRFTISRDNAKNTVYLQMNSLKPEDTAVYYCAAGYSSNGDYWGQGTQVTVSS", "polyreactivity (PSR sort gate)": "low polyreactivity"},
      {"sequence": "QVQLVESGGGLVQAGGSLRLSCAASGRIFGKYVMGWYRQAPGKERELVAAISSGGSTYADSVKGRFTISRDNAKNTFYLQMNCLKPEDTAVYYCNTRPRLYGYRPSQYTYDYWGQGTQVTVSS", "polyreactivity (PSR sort gate)": "high polyreactivity"},
      {"sequence": "QVQLVESGGGLVQAGGSLRLSCAASGRIFGLNAMGWYRQAPGKEREIVAAIRWRGGSTYYADSVKGLFTISRDNANNNVYLLMNSLKPEDTAVYYCAADRNLGVSRYGYWGQGTQVNVSS", "polyreactivity (PSR sort gate)": "high polyreactivity"}
    ]}
  ]
}
